B1: antibody A5 (L5H5) (antibody, V domains shown)
VH: QVQLVESGGGVVQPGRSLRLSCAASGFTFSSYGMHWVRQAPGKGLEWVAVIWYDGNNKYYADSVKGRFTISRDNSKNTLYLQMYSLRAEDTAVYYCARGGILAAGIFDYWGQGTLVTVSS
VL: EIVLTQSPGTLSLSPGDRATLSCRASQSGSSSYLAWYQQKPGQAPRLLIYGASSRATGIPDRFSGSGSGTDFTLTISRLEPEDFAVYYCQQYGTSPFTSGPGTKVDIK
notes: also called aCTLA-4.28; CTLA4.A5
B2: antibody A2 (L2H2) (antibody, V domains shown)
VH: QVQLVESGGGVVQPGRSLRLSCAASGFTFSNYGMNWVRQAPGKGLEWVAVIWYDGRNKHYADSVKGRFTISRDNSKNTLYLQMNSLRAEDTAVYYCARGGDWGPYFDYWGQGTLVTVSS
VL: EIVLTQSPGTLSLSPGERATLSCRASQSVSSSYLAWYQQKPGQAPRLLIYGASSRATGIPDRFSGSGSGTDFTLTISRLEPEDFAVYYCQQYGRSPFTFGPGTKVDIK
notes: also called aCTLA-4.4; CTLA4.A2
B3: antibody A7 (L7H7) (antibody, V domains shown)
VH: QVQLVESGGGVVQPGRSLRLSCAASGFTLSSFGMHWVRQAPGKGLEWVAVIWYDGSNKYYADSVKGRFIISRDNSKTALYLQMNSLRAEDTAVYYCARAHYFGAFDIWGQGTMVTVSS
VL: not shown
notes: also called aCTLA-4.3; CTLA4.A7

Experiments:
[1] = biological target: T1, His-tagged human CTLA-4 (CT4-H5229; Acro Biosystems) (human, UniProt P16410 36-161); test: SPR (Carterra)
T1 construct: bought soluble protein; also called soluble human CTLA-4; recombinant human CTLA-4; not shown: His tag
T1 sequence (P16410 36-161 limits assumed): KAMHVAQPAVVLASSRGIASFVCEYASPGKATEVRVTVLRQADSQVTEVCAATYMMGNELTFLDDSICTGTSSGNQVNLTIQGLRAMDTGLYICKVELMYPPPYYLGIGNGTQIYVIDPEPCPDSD
Outline: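 mAb supernatants captured, at two densities, on an anti-human IgG Fc lawn. His-tagged human CTLA-4 injected at 1.95, 7.8, 31.25, 125 and 500 nM in HBS-EPC pH 7.4 with 1.0 mg/mL BSA, as a non-regenerative series with 5-min association and 15-min dissociation. Double-referenced data fitted for ka, kd and KD.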

[2] = biological target: T2, His-tagged cynomolgus CTLA-4 (CT4-C5227; Acro Biosystems) (cynomolgus, UniProt G7PL88 36-161); test: BLI (Octet), single antigen concentration
T2 construct: also called soluble cynomolgus CTLA-4; cyno CTLA-4
T2 sequence (G7PL88 entry or part of it limits assumed, form in doubt): as the sequence (P16410 36-161 limits assumed) above, with S14N, I18T, L106M counted along it
Description: Table 23. In vitro characterization of scFvs reformatted as full-length antibodies. kon, koff, and KD of the indicated CTLA-4 mAbs for soluble human CTLA-4 was determined by SPR (Carterra). Geometric MFI of the indicated CTLA-4 mAbs bound to CTLA-4⁺ or CD27⁺ CHO cells as detected by a secondary human IgG antibody and flow cytometry. Affinity (KD) of the indicated CTLA-4 mAbs for soluble cynomolgus CTLA-4 was determined by a single antigen concentration BLI measurement (Octet). […] Due to constraints on sample size in each Promega bioassay kit, this set of aCTLA-4 mAbs was analyzed using multiple plates (plate letters correspond to Plate A-D in FIG. 20D).
Antibodies were loaded at 5 μg/mL onto Protein A biosensors that were dipped into 80 nM antigen, and kinetic constants were calculated using a monovalent model.

[3] = biological target: T3, human CTLA-4 expressed on the cell surface (human, UniProt P16410 36-223); test: flow cytometry, 10 µg/mL mAb, geometric MFI
T3 construct: CHO cells stably expressing human CTLA-4; also called hCTLA-4; CTLA-4+ CHO cells
T3 sequence (P16410 36-223 limits assumed): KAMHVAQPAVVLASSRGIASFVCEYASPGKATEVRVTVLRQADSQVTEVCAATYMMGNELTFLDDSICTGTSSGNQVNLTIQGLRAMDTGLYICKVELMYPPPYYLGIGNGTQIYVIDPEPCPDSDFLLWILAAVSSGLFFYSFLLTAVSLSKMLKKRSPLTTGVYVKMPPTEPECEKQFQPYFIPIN

[4] = biological target: T4, CD27 on CHO cells (UniProt P26842 20-260, limits assumed); test: flow cytometry, 10 µg/mL mAb, geometric MFI
T4 construct: whole, on cells; also called CD27+ CHO cells; irrelevant antigen (CD27)
T4 sequence (P26842 20-260 limits assumed): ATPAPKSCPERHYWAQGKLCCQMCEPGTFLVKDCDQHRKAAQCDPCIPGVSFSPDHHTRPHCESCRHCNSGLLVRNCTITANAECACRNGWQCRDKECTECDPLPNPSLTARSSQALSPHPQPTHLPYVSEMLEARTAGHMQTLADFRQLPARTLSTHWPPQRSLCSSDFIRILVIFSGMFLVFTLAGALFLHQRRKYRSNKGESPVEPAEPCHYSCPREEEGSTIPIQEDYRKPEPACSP

[5] = biological target: T4, CD27 on CHO cells; test: flow cytometry, mixed CTLA-4+ and CD27+ CHO cells
Outline: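 CHO cells stably expressing human CTLA-4 mixed with CD27-expressing CHO cells, then incubated with 10 μg/mL mAb for 30 min at 4 °C. Bound mAb detected with PE anti-human IgG Fc, CD27 cells gated by FITC anti-CD27; cells fixed in 4% paraformaldehyde before flow cytometry.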

[6] = biological target: T5, recombinant human CTLA-4-Fc (7268-CT, R&D Systems) (human, UniProt P16410 36-162); test: blocking ELISA, plate rhCTLA4-Fc, competitor rhCD86-His
T5 construct: bought; also called rhCTLA-4-Fc; rhCTLA4-Fc; Fc part of the bought chimera not given
T5 sequence (P16410 36-162): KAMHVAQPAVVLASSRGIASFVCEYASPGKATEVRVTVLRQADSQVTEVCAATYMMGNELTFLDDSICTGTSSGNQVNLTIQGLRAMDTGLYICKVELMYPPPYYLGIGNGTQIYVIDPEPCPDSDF
Description: Plates were coated with rhCTLA4-Fc and then blocked with 1×PBST with 5% w/v nonfat dry milk. After blocking a dilution series of the indicated antibody was added to the plate.

Binder	Kd [1] [nM]	Kd [2] [nM]	MFI of CTLA-4+ CHO cells [3]	MFI of CD27+ CHO cells [4]	binding result [5]	CD86 % inhibition [6] [%]	EC50 [6] [µg/mL]
B1	4.6	2.2	1030	17.2	no binding (tested: 10 µg/mL)	90.6	0.122
B2	5.1	3.1	1120	11.7	no binding (tested: 10 µg/mL)	91.5	0.145
B3	5.7	0.8	854	15.3	no binding (tested: 10 µg/mL)	78.8	1.98

From patent US20230265192A1 (GIGAGEN, published 2023)
